The target in experiment [1] is human insulin receptor (IR), CHO cell line overexpressing human IR (pAkt assay) (human) (UniProt P06213). Put plainly: cell-based or functional assay.
Experiment [2] deals with minipig insulin receptor (IR) (minipig). Put plainly: cell-based or functional assay.

From patent publication US20190175744A1, “INSULIN-INCRETIN CONJUGATES” (Merck Sharp & Dohme Corp., priority 2016, published 2019) come the findings set out here.

For Insulin degludec (ligand), the Insulin Receptor pAK Assay EC50, Human in experiment [1] turned out to be 0.48 nM.
Turning to Insulin levemir (ligand), in experiment [2], the Insulin Receptor pAK Assay EC50, Minipig was 0.5 nM. Also, the Insulin Receptor pAK Assay EC50, Human in experiment [1] was found to be 0.51 nM.
